{"source": "paper PMC7412812", "about": "“The RNA-binding protein SERBP1 functions as a novel oncogenic factor in glioblastoma by bridging cancer metabolism and epigenetic regulation”", "molecular_target": "T1, SERBP1 (human, UniProt Q8NC51 1-408)", "T1 sequence": "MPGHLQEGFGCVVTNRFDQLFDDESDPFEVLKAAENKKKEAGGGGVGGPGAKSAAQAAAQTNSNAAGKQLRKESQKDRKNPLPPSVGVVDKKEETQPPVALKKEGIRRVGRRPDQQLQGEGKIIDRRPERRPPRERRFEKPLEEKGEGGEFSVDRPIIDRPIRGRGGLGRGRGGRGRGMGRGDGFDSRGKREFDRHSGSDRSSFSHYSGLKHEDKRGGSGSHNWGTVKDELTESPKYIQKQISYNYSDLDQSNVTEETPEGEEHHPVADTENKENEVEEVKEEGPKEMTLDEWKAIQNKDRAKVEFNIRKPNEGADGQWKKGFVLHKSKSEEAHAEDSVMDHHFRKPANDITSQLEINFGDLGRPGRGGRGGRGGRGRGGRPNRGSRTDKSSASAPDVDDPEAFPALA", "experiment": "fluorescence polarization; 5 nM RNA, 0-1000 nM protein; FP: 10 mM HEPES pH 7.5, 50 mM KCl, room temperature", "conditions": "protein: recombinant; tags: N-terminal His6, proteolytically removed (Methods; Results call it an N-terminus His6 fusion); label: 5'-fluorescein; single strand"}
{"binder": "GCGCGGG (ssRNA)", "note": "[SERBP1 RNA 7-mer]", "values": [{"measurement": "Kd", "result": "~47", "unit": "nM"}]}
